The values below come from PMC11574045, “A cofactor-induced repressive type of transcription factor condensation can be induced by synthetic peptides to suppress tumorigenesis” (The EMBO Journal, 2024).

B1: YAF2 (protein, UniProt Q8IY57 1-180, looked up)
YY1-associated factor 2: MGDKKSPTRPKRQPKPSSDEGYWDCSVCTFRNSAEAFKCMMCDVRKGTSTRKPRPVSQLVAQQVTQQFVPPTQSKKEKKDKVEKEKSEKETTSKKNSHKKTRPRLKNVDRSSAQHLEVTVGDLTVIITDFKEKTKSPPASSAASADQHSQSGSSSDNTERGMSRSSSPRGEASSLNGESH
B2: VAX2 (protein, UniProt Q9UIW0 1-290, looked up)
Ventral anterior homeobox 2: MGDGGAERDRGPARRAESGGGGGRCGDRSGAGDLRADGGGHSPTEVAGTSASSPAGSRESGADSDGQPGPGEADHCRRILVRDAKGTIREIVLPKGLDLDRPKRTRTSFTAEQLYRLEMEFQRCQYVVGRERTELARQLNLSETQVKVWFQNRRTKQKKDQSRDLEKRASSSASEAFATSNILRLLEQGRLLSVPRAPSLLALTPSLPGLPASHRGTSLGDPRNSSPRLNPLSSASASPPLPPPLPAVCFSSAPLLDLPAGYELGSSAFEPYSWLERKVGSASSCKKANT
B3: C16orf5 (protein, UniProt Q9H305 1-208, looked up)
Cell death-inducing …: MSSEPPPPYPGGPTAPLLEEKSGAPPTPGRSSPAVMQPPPGMPLPPADIGPPPYEPPGHPMPQPGFIPPHMSADGTYMPPGFYPPPGPHPPMGYYPPGPYTPGPYPGPGGHTATVLVPSGAATTVTVLQGEIFEGAPVQTVCPHCQQAITTKISYEIGLMNFVLGFFCCFMGCDLGCCLIPCLINDFKDVTHTCPSCKAYIYTYKRLC
B4: C1D (protein, UniProt Q13901 1-141, looked up)
Nuclear nucleic acid-binding …: MAGEEINEDYPVEIHEYLSAFENSIGAVDEMLKTMMSVSRNELLQKLDPLEQAKVDLVSAYTLNSMFWVYLATQGVNPKEHPVKQELERIRVYMNRVKEITDKKKAGKLDRGAASRFVKNALWEPKSKNASKVANKGKSKS
B5: USP22 (protein, UniProt Q9UPT9 1-525, looked up)
Ubiquitin carboxyl-terminal …: MVSRPEPEGEAMDAELAVAPPGCSHLGSFKVDNWKQNLRAIYQCFVWSGTAEARKRKAKSCICHVCGVHLNRLHSCLYCVFFGCFTKKHIHEHAKAKRHNLAIDLMYGGIYCFLCQDYIYDKDMEIIAKEEQRKAWKMQGVGEKFSTWEPTKRELELLKHNPKRRKITSNCTIGLRGLINLGNTCFMNCIVQALTHTPLLRDFFLSDRHRCEMQSPSSCLVCEMSSLFQEFYSGHRSPHIPYKLLHLVWTHARHLAGYEQQDAHEFLIAALDVLHRHCKGDDNGKKANNPNHCNCIIDQIFTGGLQSDVTCQVCHGVSTTIDPFWDISLDLPGSSTPFWPLSPGSEGNVVNGESHVSGTTTLTDCLRRFTRPEHLGSSAKIKCSGCHSYQESTKQLTMKKLPIVACFHLKRFEHSAKLRRKITTYVSFPLELDMTPFMASSKESRMNGQYQQPTDSLNNDNKYSLFAVVNHQGTLESGHYTSFIRQHKDQWFKCDDAIITKASIKDVLDSEGYLLFYHKQFLEYE
B6: VENTX (protein, UniProt O95231 1-258, looked up)
Homeobox protein VENTX: MRLSSSPPRGPQQLSSFGSVDWLSQSSCSGPTHTPRPADFSLGSLPGPGQTSGAREPPQAVSIKEAAGSSNLPAPERTMAGLSKEPNTLRAPRVRTAFTMEQVRTLEGVFQHHQYLSPLERKRLAREMQLSEVQIKTWFQNRRMKHKRQMQDPQLHSPFSGSLHAPPAFYSTSSGLANGLQLLCPWAPLSGPQALMLPPGSFWGLCQVAQEALASAGASCCGQPLASHPPTPGRPSLGPALSTGPRGLCAMPQTGDAF
B7: ZBED2 (protein, UniProt Q9BTP6 1-218, looked up)
Zinc finger BED …: MMRREDEEEEGTMMKAKGDLEMKEEEEISETGELVGPFVSAMPTPMPHNKGTRFSEAWEYFHLAPARAGHHPNQYATCRLCGRQVSRGPGVNVGTTALWKHLKSMHREELEKSGHGQAGQRQDPRPHGPQLPTGIEGNWGRLLEQVGTMALWASQREKEVLRRERAVEWRERAVEKRERALEEVERAILEMKWKVRAEKEACQREKELPAAVHPFHFV
B8: USP49 (protein, UniProt Q70CQ1 1-688, looked up)
Ubiquitin carboxyl-terminal …: MDRCKHVGRLRLAQDHSILNPQKWCCLECATTESVWACLKCSHVACGRYIEDHALKHFEETGHPLAMEVRDLYVFCYLCKDYVLNDNPEGDLKLLRSSLLAVRGQKQDTPVRRGRTLRSMASGEDVVLPQRAPQGQPQMLTALWYRRQRLLARTLRLWFEKSSRGQAKLEQRRQEEALERKKEEARRRRREVKRRLLEELASTPPRKSARLLLHTPRDAGPAASRPAALPTSRRVPAATLKLRRQPAMAPGVTGLRNLGNTCYMNSILQVLSHLQKFRECFLNLDPSKTEHLFPKATNGKTQLSGKPTNSSATELSLRNDRAEACEREGFCWNGRASISRSLELIQNKEPSSKHISLCRELHTLFRVMWSGKWALVSPFAMLHSVWSLIPAFRGYDQQDAQEFLCELLHKVQQELESEGTTRRILIPFSQRKLTKQVLKVVNTIFHGQLLSQVTCISCNYKSNTIEPFWDLSLEFPERYHCIEKGFVPLNQTECLLTEMLAKFTETEALEGRIYACDQCNSKRRKSNPKPLVLSEARKQLMIYRLPQVLRLHLKRFRWSGRNHREKIGVHVVFDQVLTMEPYCCRDMLSSLDKETFAYDLSAVVMHHGKGFGSGHYTAYCYNTEGGFWVHCNDSKLNVCSVEEVCKTQAYILFYTQRTVQGNARISETHLQAQVQSSNNDEGRPQTFS
B9: UBTF (protein, UniProt P17480 1-764, looked up)
Nucleolar transcription …: MNGEADCPTDLEMAAPKGQDRWSQEDMLTLLECMKNNLPSNDSSKFKTTESHMDWEKVAFKDFSGDMCKLKWVEISNEVRKFRTLTELILDAQEHVKNPYKGKKLKKHPDFPKKPLTPYFRFFMEKRAKYAKLHPEMSNLDLTKILSKKYKELPEKKKMKYIQDFQREKQEFERNLARFREDHPDLIQNAKKSDIPEKPKTPQQLWYTHEKKVYLKVRPDATTKEVKDSLGKQWSQLSDKKRLKWIHKALEQRKEYEEIMRDYIQKHPELNISEEGITKSTLTKAERQLKDKFDGRPTKPPPNSYSLYCAELMANMKDVPSTERMVLCSQQWKLLSQKEKDAYHKKCDQKKKDYEVELLRFLESLPEEEQQRVLGEEKMLNINKKQATSPASKKPAQEGGKGGSEKPKRPVSAMFIFSEEKRRQLQEERPELSESELTRLLARMWNDLSEKKKAKYKAREAALKAQSERKPGGEREERGKLPESPKRAEEIWQQSVIGDYLARFKNDRVKALKAMEMTWNNMEKKEKLMWIKKAAEDQKRYERELSEMRAPPAATNSSKKMKFQGEPKKPPMNGYQKFSQELLSNGELNHLPLKERMVEIGSRWQRISQSQKEHYKKLAEEQQKQYKVHLDLWVKSLSPQDRAAYKEYISNKRKSMTKLRGPNPKSSRTTLQSKSESEEDDEEDEDDEDEDEEEEDDENGDSSEDGGDSSESSSEDESEDGDENEEDDEDEDDDEDDDEDEDNESEGSSSSSSSSGDSSDSDSN
B10: ZBTB17 (protein, UniProt Q13105 1-803, looked up)
Zinc finger and BTB …: MDFPQHSQHVLEQLNQQRQLGLLCDCTFVVDGVHFKAHKAVLAACSEYFKMLFVDQKDVVHLDISNAAGLGQVLEFMYTAKLSLSPENVDDVLAVATFLQMQDIITACHALKSLAEPATSPGGNAEALATEGGDKRAKEEKVATSTLSRLEQAGRSTPIGPSRDLKEERGGQAQSAASGAEQTEKADAPREPPPVELKPDPTSGMAAAEAEAALSESSEQEMEVEPARKGEEEQKEQEEQEEEGAGPAEVKEEGSQLENGEAPEENENEESAGTDSGQELGSEARGLRSGTYGDRTESKAYGSVIHKCEDCGKEFTHTGNFKRHIRIHTGEKPFSCRECSKAFSDPAACKAHEKTHSPLKPYGCEECGKSYRLISLLNLHKKRHSGEARYRCEDCGKLFTTSGNLKRHQLVHSGEKPYQCDYCGRSFSDPTSKMRHLETHDTDKEHKCPHCDKKFNQVGNLKAHLKIHIADGPLKCRECGKQFTTSGNLKRHLRIHSGEKPYVCIHCQRQFADPGALQRHVRIHTGEKPCQCVMCGKAFTQASSLIAHVRQHTGEKPYVCERCGKRFVQSSQLANHIRHHDNIRPHKCSVCSKAFVNVGDLSKHIIIHTGEKPYLCDKCGRGFNRVDNLRSHVKTVHQGKAGIKILEPEEGSEVSVVTVDDMVTLATEALAATAVTQLTVVPVGAAVTADETEVLKAEISKAVKQVQEEDPNTHILYACDSCGDKFLDANSLAQHVRIHTAQALVMFQTDADFYQQYGPGGTWPAGQVLQAGELVFRPRDGAEGQPALAETSPTAPECPPPAE
B11: WNT3A (protein, UniProt P56704 19-352, looked up)
Protein Wnt-3a: SYPIWWSLAVGPQYSSLGSQPILCASIPGLVPKQLRFCRNYVEIMPSVAEGIKIGIQECQHQFRGRRWNCTTVHDSLAIFGPVLDKATRESAFVHAIASAGVAFAVTRSCAEGTAAICGCSSRHQGSPGKGWKWGGCSEDIEFGGMVSREFADARENRPDARSAMNRHNNEAGRQAIASHMHLKCKCHGLSGSCEVKTCWWSQPDFRAIGDFLKDKYDSASEMVVEKHRESRGWVETLRPRYTYFKVPTERDLVYYEASPNFCEPNPETGSFGTRDRTCNVSSHGIDGCDLLCCGRGHNARAERRREKCRCVFHWCCYVSCQECTRVYDVHTCK
B12: XBP1 (protein, UniProt P17861 1-261, looked up)
X-box-binding protein 1: MVVVAAAPNPADGTPKVLLLSGQPASAAGAPAGQALPLMVPAQRGASPEAASGGLPQARKRQRLTHLSPEEKALRRKLKNRVAAQTARDRKKARMSELEQQVVDLEEENQKLLLENQLLREKTHGLVVENQELRQRLGMDALVAEEEAEAKGNEVRPVAGSAESAALRLRAPLQQVQAQLSPLQNISPWILAVLTLQIQSLISCWAFWTTWTQSCSSNALPQSLPAWRSSQRSTQKDPVPYQPPFLCQWGRHQPSWKPLMN

This assay relates to HEK293FT cells transfected with TF library. In words: Screening of TF condensates based on fluorescent puncta. The assay is classed as cell-based. The following applies: Figure 1B numerical data; TF library screen, one value per transcriptional factor. The essentials:
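Puncta scoring used automated confocal imaging of fifty random fields per well, after anti-Flag or anti-GAL4 immunofluorescence (Alexa 488) in PFA-fixed cells. HEK293FT cells carried TF library plasmids delivered with PEI (1.6 μg/ml DNA). At 60 h they were switched for 12 h to glucose-containing or glucose-free medium.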
For B1, the “Z score of condensed fraction” value turned out to be 1.84.

With B2, the “Z score of condensed fraction” value was -0.9394.

As for B3, the “Z score of condensed fraction” value is on record as 3.145.

As to B4, the “Z score of condensed fraction” value is recorded as -0.3287.

For B5, the “Z score of condensed fraction” value was found to be 0.5078.

Take B6: the “Z score of condensed fraction” value is given as -0.4099.

Regarding B7, the “Z score of condensed fraction” value is reported as 0.7838.

As for B8, the “Z score of condensed fraction” value is recorded as -0.174.

Turning to B9, the “Z score of condensed fraction” value is reported as -0.959.

B10: the “Z score of condensed fraction” value is listed as -0.2141.

For the molecule B11, the “Z score of condensed fraction” value is on record as -0.5314.

As for B12, the “Z score of condensed fraction” value is -0.3977.
